The record followed here is the nanobody polyreactivity screen of Harvey et al. (2022).

A short description of the series: yeast display, Sf9 membrane polyspecificity reagent, FACS + sequencing; frameworks hold sequencing errors. Summed up:
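A nanobody's polyreactivity label depends on the gate it was sorted from. Yeast display cells were stained with 10% biotinylated, detergent-solubilized Sf9 membrane reagent for 1 hour at 4 °C, enriched on streptavidin microbeads and sorted by FACS. The low and high (top ~1%) gates were set on anti-HA fluorescence for expression and streptavidin fluorescence for reagent binding.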
Turning to “QVQLVESGGCLVQAGGTLRLSCASSGNTFVDYGMGWYRQAPGKERELVAAITRGGTTKYADSVKGRFTISRVNAKNKVYLQMNSLKPEDTAVYYCAAEWPVNFDYWGKGTQVTVSS”, the “polyreactivity (PSR sort gate)” value is on record as “low polyreactivity”.
As for “QVQLVESGGGLDQAGGSLRLSCAASGSTFRNNAMGWYRQAPGKERELVAAISRGGGSTYYADSVKGRFTISRDNAKNNVYLQMTSLKQDDTAVYDCARRPTGIYDYWGQGTQVTVSS”, the “polyreactivity (PSR sort gate)” value is listed as “high polyreactivity”.
Turning to “QVQLGESGGGLFQAGGSLRLSCAASGFTFVYYAMGWYRQAPGKERELVATISGNGGRTYYADSVKGRFTISRDNAKNTVYLQMNSLKPEDTAVYYCAALLYISSVGYDYWGQGTQVTVSS”, the “polyreactivity (PSR sort gate)” value is listed as “low polyreactivity”.
For the sequence “QVQLVESGGGLVQAGGSLRLSCAASGSTFGTYAMGWYRQAPGKERELVATISIGGITYYADSVKGRFTISRDNAKNTVYLQMNSLKPEDTAVYYCAKDVTDPTSRSDPSGDDYWGQGTQVTVSS”, the “polyreactivity (PSR sort gate)” value is “low polyreactivity”.
For the sequence “QVQRVESGGGLVQAGGSLRLSCAASGRIFQVYAMGWSRPAPGKERELVAAITWSGGSSYADSVKGRFTISRDNAKNTVFLQMNSLKPEDTAVYYCAAPFYYYGVRFDYRGQGTQVTVSS”, the “polyreactivity (PSR sort gate)” value is on record as “high polyreactivity”.
Under “QVQLVESGGGLVQAGGSLRLTCAASGSTFPSYAMGWYRQAPGKERELVAAINSGGGTNYADSVKGRFTISRDNAKNTVYLHMNSLKPEDTAVYYCAKSRYDYTKTEGGYWGQGSQVTVSS” stands “low polyreactivity”; under “QVQLEESGGGLVQAGGSLRLSCAASGFISIPYAMGWYRQAPGKERELVASITRSGGNTYYADSVKGRFTISRDNAKNTVYLQMNSLKPEDTAVYYCNVVVYRWSPVSKLDYWGQGTQVTVSS”, “high polyreactivity”; under “KVLLVESGGGLVQAGGSLRLSCAASGSIFHGNAMGWYRQAPGKERELVATISSGGSTYYADSVKGLFTISRDNAKNTVDLQMNSLKPEDTAVYYCAAERFWPYKSYYWGQGTQVTVSS”, “low polyreactivity”.
Under “QVQLVESGGGLVQAGGSLRLSCAASGSIFDYYTMGWYRQAPGKERELVASITQSGGSTYYADSVKGRFTISRDNAKNTVYLQMNSLIPEDTAVYYCAADFSIVKMDYWGQGTQVTVSS” stands “low polyreactivity”; under “QVQLVESGGGLVQAGGSLRLSCAASGRTFVWNAMGWYRQAPGKERELVAAIDWSGGSTYYADSVKGRFTISRDNAKNTVYLQMNSLKPEDSAVYYCAKEYWYRALWYNYWGQGTQVTVSS”, “high polyreactivity”; under “QVQLVESGGGLVQAGGSLRLSCAASGRIFPLYAMGWYRQAPGKERELDAAISKRDGSTSYADSVKGRFTISRDNAKNTVYLQMNSLKPVDTAVYYCNARNHVQVLFRRDYWGQGTQVTVSS”, “low polyreactivity”.
In the case of “QVQLVESGGGLVQAGGTLLLSGAASGSIFGYNAMGWYRQAPGKERELVAAIRSSDSRTHYADSVKGRFRISRDNAKNTVYLQMNSLKPEDTAVYYCAAVKRRPGHYLYDYWGQGTQVTVSS” it was “low polyreactivity”; in that of “QVQLVESGGGLVQAGGSLRLSCAASGRIFIGYAMGWYRQAPGKERELVAAISWGGGSTFYADSVKGRFTISRDNAKNTVYLQMNSLKPEDTAVYYCNKVYRQRVVKGGYWGQGTQVTVSS”, “high polyreactivity”.
For “QVQLVESGGGLVQAGGSLRLSCAASGSIFYRNAMGCYIQAPGKERELVAAITSSGVSTYYADSVKGRFTISRDNAKNTVYLQMNSLKPEDTAVYYCAARSVYTGRPYYYWGQGTQVTVSS”, the “polyreactivity (PSR sort gate)” value is “high polyreactivity”.
In the case of “QVQLVESGGGLVQARGSLRLSCAASGSTFDSNAMGCYRQAPGKERELVAAITRGGSTNYADSVKGRFTISRDNAKNTVYLQMNSLNPEDTAVYYCAAASETLGSATYGSGYDYWGQGTQVTVSS” it was “low polyreactivity”.
On to “QVQLVESGGGLVQAGGSLRLSCAASGRILRTNAMGWYRQAPGKERELVAAISSDGSTYYADSVKGRFTISRDNAKNTVYLQMNSLKPEDTAVYYCAARLFYRGPRFDYWGQGTQVTVSS”, for which the “polyreactivity (PSR sort gate)” value is reported as “low polyreactivity”.
Under “QVQLVESGGGLVQAGGSLRLSCAASGRTFNSNAMGWYRQAPGKERELVAAISGRTGRTYYADSVKGRFTISRDNAKNTVYLQMNSLKPEDTAVYYCATGTYAAAQGTRYYYWGQGTQVTVSS” stands “high polyreactivity”; under “QVQLVESGVGLVQARGSLRLSCASSGSILIYNAMGWYRQAPGKVRELVAGISRRGDSTYYADSVKGRFTISRDNAKKTVYLQMNSLKPEDTAVYYCAALGKYIVAWSGDYWGQGTQVTVSS”, “low polyreactivity”.
Under “QVQLVESGGGLVQAGGSLRLSCAASGRTFTGNALGWYRQAPGKERELVAAISQRGGRTNYADSVKGRFTISRDNAKNTVYLQMNSLKPEDTAVYYCAADLGYYYFFGSNYAYDYWGQGTQVNVSS” stands “low polyreactivity”; under “QVQLVESGGGLVQAGGSLRLSCAASGSTFYAYTMGWYRQAPGKERELVADISRSGGSTYYADSVKGRFTISRDNAKNTVYLQMNSLKPEDTAVYYCAAASSYYRGHYDYWVQGTQVTVSS”, “high polyreactivity”.
In the case of “QVQLVESGGGLVQAGGSLRLSCAASGIIFDGYAMGWYRQAPGKERELVAAISRRGGSTYYADSVKGRFTISRDNAKNTVYLQMNSLKPEDTAVYYCAAEYVYWRIGQYDYWGQGTQVTVSS” it was “high polyreactivity”; in that of “QVQLVESGGGLVQAGGSLRLSCAASGSIFRYYDMGWYRQAPGKERELVAAISYSDGRTYYADSVKGRFTISRDNAKNTVYLQMNSLKPEDTAVYYCAAETLYVSPYFFVVQYDYWGQGTKVTVSS”, “high polyreactivity”; in that of “QVQLVESGGGLVQAGGSLRLSCAASGNIFSYYAMGWYRQAPGKETELVAAIRSSGVGTRYADSVKGRFTISRDNAKNTVYVQMNSLKPEDTAVYYCAATGYTGYSRYYYWGQGTQVTVSS”, “high polyreactivity”.
For “QDQLVESGGCLVQAGGSLRLSCASSGSTFGDYAMGWYRQAPGKERELVAAISVSGASTYYADSVKGRFTISRDNAKNTVYLQMNSLKPEDTAVYYCAASYDTIGDSWGQGTQVSVSS”, the “polyreactivity (PSR sort gate)” value was “low polyreactivity”.
For the sequence “QVQLVESGGGLVQAGGSLRLSCAASGFIFVPYAMGWYRQAPGKERELVAAIDTSGGNTYADSVKGRFTISRDNAKNTVYLQMNSLKPEDTAVYYCAARYQWDWRDYYYWGQGTQVTVSS”, the “polyreactivity (PSR sort gate)” value is “low polyreactivity”.
For “QVQLVESGGGLVQAGGSLRLSCAASGFTFHYYTMGWYRQAPGKERELVASINYSGGRTYYADSVKGRFTISRDNAKNTVYLQMNSLKPEDTAVYYCNARYKSTYYYWGQGTQVTVSS”, the “polyreactivity (PSR sort gate)” value was “high polyreactivity”.
Consider “QVQLVESGGGLVQAGGSLRLSCAASGFTFRAYAMGWYRQAPGKERELVAGITRSGGSTHYADSVKGRFTISRDNAKNTVYLQMNSLKPEDTAVYYCNARYPYRGKRKPPDYWGQGTQVTVSS”, for which the “polyreactivity (PSR sort gate)” value is listed as “high polyreactivity”.
In the case of “QVQLVESGGGLVQAGGSLRLSCAASGRTFVYYAKGWYIQAPGKERELVATISSSDSTNYAYSVKGRFTISRDNAKNTVYLQMNSLKPEDTAVYYCAGGPKGGGYYDPFDYWGQGTQVNVSS”, the “polyreactivity (PSR sort gate)” value is reported as “low polyreactivity”.
Regarding “QVQLLESGGGLVQAGGCLRLRCAASVRTFEQNAMGWCRRAPGKERELVASITSVGSTDYADSVKGRFTISRDNAKNTVYLQMNSLKPEDTAGYYCAKTLGSQNYDFDYWGQGTQVTVSS”, the “polyreactivity (PSR sort gate)” value is “low polyreactivity”.
With “QDQLVESGGGLVQAGGNLRLSCAASGRIYRYYAMGWYRQAPGKERELVATITLNTVSTYYADSVKGRFTISRDNAKNTVYVQKNSRTPEDTAVYYCAAGAVRFGAGYSRYWEDDYWGQGTQVTVSS”, the “polyreactivity (PSR sort gate)” value is given as “high polyreactivity”.
As to “QVHLVDSRGGLVQAGGSLRLSCAASGRISVFYTMGWYRQEPGKEREMVATITTSGGFTYYADSVKGRFTNSRDNAKNTVYLLMNSLKPEDTAVYYCAAVLGYRFYEYYFWGQGTQVTVSS”, the “polyreactivity (PSR sort gate)” value is reported as “low polyreactivity”.
“QVQLVESGGGLVQAGGSLRLSCAASGITFLTYTMGWYRQAPGKERELVAAISRSGGRTYYADSVKGRFTISRDNAKNTVYFQMNSLKPEDTAVYYCAAVSANQDFDYWGQGTQVTVSS”: the “polyreactivity (PSR sort gate)” value is recorded as “high polyreactivity”.
In the case of “QVQLVESGGGLVQAGGSLRLSCAASGFIFPYYALGWYRQAPGKEREFVAAISKTAGRTYYADSVKGRFTISRDNAKNTVYLQMNSLKPEDTAVYYCAVGNKRDAYYQYSSYGYWGQGTQVTVSS” it was “low polyreactivity”; in that of “QVQLVESGGGLVQAGGSLRLSCAASGSTFDGNAMGWYRQAPGKERELVAAISSSGGSTYYADSVKGRFTISRDNAKNTVYLQMNSLKPEDTAVYYCAAGGWSTLLSWFYRRYDYWGQGTQVTVSS”, “high polyreactivity”; in that of “QVQLVESGGGLVQAGGSLRLSCAASGSIFSGYAMGWYRQAPGKERELVAAITRSGGRTYYADSVKGRFTISRDNAKNTVYLQMNSLKPEDTAVYYCAARGGPGDDYWGQGTQVTVSS”, “high polyreactivity”.
In the case of “QVQLVESGGGLVQAGGSLRLSCAASGGTIYRNAMGWYRQAPGKEREMVASITRGGSTTYADSVKGRFTISRDNAKNTVYLQMNCLKPEATAVYYCNAPGQQRYDSWGQGTQVTVSS” it was “high polyreactivity”; in that of “QVHLVESGGGLVQAGGSLRLSCAASGRNFAYNAMGWYRQAPGKETELVASFTSGGSTNYADSVKGRFTISRDNANNTVYLQMNSLKPEDSAVYYCNKDGKYHRVLYDYWGQGTQVTVSS”, “low polyreactivity”; in that of “QVQLVESGGGLVQAGGSLRLSCAASGSTIEANAMGWYRQAPGKERELVAVNTWTGGSTYYADSVKGRFTISRDNAKNTVYLQMNSLKPEDTAVYYCAADGVVPGRFFWPAHEYDYWGQGTQVTVSS”, “low polyreactivity”.
Consider “QVQLEESGGGLVQAGGSLRLSCAASGRIFTRYALGWYRQAPGKERELVAAITGSGGSTYYADSVKGRFTISRDNAKNTVYLQMNSRKPEDTAVYYCATDFYCYRSYNYWGQGTQVTVSS”, for which the “polyreactivity (PSR sort gate)” value is “high polyreactivity”.
In the case of “QVQLVESGGGLVQAGGSLRLSCAASGLTIWRYAMGWYRQAPGKEREFVATISQNGGRTYYADSVKGRFTISRDNAKNTVYLQMNSLKPEDTAVYYCAADDWRWGYDYWGQGTQVTVSS” it was “high polyreactivity”.
With “QVQLVESGGGIVQAGGSLRLSCAASGRNFYYYAMGWYRQAPGKERELVAAISWSGGRTYYADSVKGRFTISRDNAKNTVYFQMNSLKPEDTAVYYSNAEPPRGYSVSSGGEMDYWGQGTEVTVSS”, the “polyreactivity (PSR sort gate)” value is “low polyreactivity”.
